From PMC12293987, “Dissecting the tRNA Fragment tRF3E–Nucleolin Interaction: Implications in Breast Cancer”
Changes are numbered by the printed parent chain. Names may count otherwise.

Tests used:
Nucleolin (NCL) [1] = target: T1, Nucleolin (NCL) (UniProt P19338 1-710); test: EMSA; printed as KD >= 1500 nM; still interacts with very low affinity; 20 mM Tris-HCl pH 7.5, 50 mM KCl, 10% glycerol, 0.3 mg/mL BSA, 0.02% Nonidet P-40, 15 uL, 2 pmol 32P-RNA, 20 °C 30 min (competition: further 30 min); native 7%; settings: protein: recombinant; tags: His; label: 32P; predicted fold, CGA in bubble
Nucleolin (NCL) [2] = target: T1, Nucleolin (NCL); test: EMSA; complex I, NCL in excess; Kd taken as protein concentration retarding 50% of probe; 20 mM Tris-HCl pH 7.5, 50 mM KCl, 10% glycerol, 0.3 mg/mL BSA, 0.02% Nonidet P-40, 15 uL, 2 pmol 32P-RNA, 20 °C 30 min (competition: further 30 min); native 7%; settings: protein: recombinant, tags: His
Nucleolin (NCL) [3] = target: T1, Nucleolin (NCL); test: EMSA; complete loss of retardation; 20 mM Tris-HCl pH 7.5, 50 mM KCl, 10% glycerol, 0.3 mg/mL BSA, 0.02% Nonidet P-40, 15 uL, 2 pmol 32P-RNA, 20 °C 30 min (competition: further 30 min); native 7%; settings: protein: recombinant; tags: His; label: 32P; predicted fold, CGA at junction of double-stranded and unstructured region

T1 sequence (P19338 whole entry): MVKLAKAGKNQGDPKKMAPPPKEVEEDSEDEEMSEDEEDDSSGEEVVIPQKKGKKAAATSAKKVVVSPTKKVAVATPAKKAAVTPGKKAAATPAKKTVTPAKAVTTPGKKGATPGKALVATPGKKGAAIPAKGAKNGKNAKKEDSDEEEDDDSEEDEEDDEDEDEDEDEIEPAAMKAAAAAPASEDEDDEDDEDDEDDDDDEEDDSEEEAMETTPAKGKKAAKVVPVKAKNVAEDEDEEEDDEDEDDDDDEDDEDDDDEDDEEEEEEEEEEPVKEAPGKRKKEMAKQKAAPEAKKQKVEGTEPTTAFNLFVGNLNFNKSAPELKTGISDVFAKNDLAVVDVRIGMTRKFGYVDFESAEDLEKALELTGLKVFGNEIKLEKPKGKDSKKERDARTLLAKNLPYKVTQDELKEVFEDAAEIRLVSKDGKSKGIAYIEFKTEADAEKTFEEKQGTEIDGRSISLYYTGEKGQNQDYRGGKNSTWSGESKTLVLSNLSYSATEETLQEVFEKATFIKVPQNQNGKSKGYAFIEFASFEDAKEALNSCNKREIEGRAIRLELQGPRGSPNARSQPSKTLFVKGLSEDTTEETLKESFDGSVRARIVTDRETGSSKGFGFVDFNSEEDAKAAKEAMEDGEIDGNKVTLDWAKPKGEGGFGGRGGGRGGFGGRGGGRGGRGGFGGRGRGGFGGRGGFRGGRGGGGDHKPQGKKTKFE

B1: D2M (structured_RNA)
RNA: AGGCGGAAAUGGUUCGACUAAAUGUGUGGGAA
Question: Which Kd (Nucleolin (NCL) [1]) does the source give for B1 here?
Answer: > 1500 nM

B2: wt tRF3E (structured_RNA)
RNA: AGGCGGCCCGGGUUCGACUCCCGGUGUGGGAA
Question: With B2 as the binder, how does the Kd (Nucleolin (NCL) [2]; hairpin (predicted stems, CGA 15-17 in loop)) read?
Answer: ~280 nM

B3: M19-24 (structured_RNA)
RNA: B1 RNA with A7C, A8C, A9C, U10G
Question: With B3 as the binder, how does the Kd (Nucleolin (NCL) [2]; hairpin (predicted, CGA 15-17 in loop)) read?
Answer: ~280 nM

B4: M6-11 (structured_RNA)
RNA: B1 RNA with A20C, A21C, A22C, U23G
Question: Does B4 bind (Nucleolin (NCL) [3])?
Answer: no binding
